As usually defined, the EC50 is the concentration giving half of the maximal effect. In general, Kd refers to the free concentration of one partner at which half of the binding sites on the other are occupied at equilibrium, for simple one-to-one binding. Usually koff stands for the first-order rate constant of dissociation.

The target in test [1] is T1, human galectin-10-His (recombinant human galectin-10 with TEV-cleavable N-terminal His-tag) (human).
T1 construct: SEC-MALLS: dimer in solution; also called Gal10-His; humanGal10-His
T1 chain: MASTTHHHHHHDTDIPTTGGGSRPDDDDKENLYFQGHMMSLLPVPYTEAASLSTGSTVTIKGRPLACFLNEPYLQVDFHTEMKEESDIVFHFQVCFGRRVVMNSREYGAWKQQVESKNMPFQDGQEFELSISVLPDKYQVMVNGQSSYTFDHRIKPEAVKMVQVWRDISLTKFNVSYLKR
Kind of test: ELISA, mouse IgG1 on coated galectin-10-His (0.2 ug/mL). In short, it runs like this: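 Serial dilutions of each antibody (from 100 nM, 1/4 steps, 12 points) were incubated on plates coated overnight with the antigen. Bound IgG1 detected with anti-mouse Fc-HRP, absorbance at 450 nm (reference 620 nm). EC50 from four-parameter variable-slope non-linear regression of OD values.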

The target in test [2] is T1, human galectin-10-His (recombinant …). Kind of test: BLI tandem on galectin-10-His; competitor: saturating 6F06 mIgG1 (10 ug/mL). An outline of the steps: (§1)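 Read-out is the BLI wavelength shift (nm) from the competitor antibody, measured after the captured antigen has already been saturated by another antibody. Absence of shift means both antibodies share the binding site.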

For test [3] the target is unchanged. Nature of the test: BLI tandem on galectin-10-His; competitor: saturating 2F09 mIgG1 (10 ug/mL). An outline of the steps: as §1
Test [4] has as its target T2, cynomolgus galectin-10-His, YRT isoform (cynomolgus).
T2 construct: not shown: His tag
T2 chain: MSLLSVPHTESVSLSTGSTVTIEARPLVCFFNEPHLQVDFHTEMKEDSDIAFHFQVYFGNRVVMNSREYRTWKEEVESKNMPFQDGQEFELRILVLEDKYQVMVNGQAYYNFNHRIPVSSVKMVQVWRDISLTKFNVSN
Nature of the test: ELISA, mouse IgG1 on coated cynoGal10-His_YRT (0.5 ug/mL). The procedure:
In a similar setup to that used during the characterization of the scFv-human Fc molecules, the relative binding properties of the 7 mouse IgG1 antibodies were analyzed by ELISA. A Maxisorp plate was coated overnight with 0.5 μg/mL of human or cynomolgus WGS or YRT isoform of galectin-10-His. Then a serial dilution of each clone (from 100 nM, dilution 1/4, 12 points of dilutions) was incubated on coated galectin-10. After several washing steps, detection of the bound mouse IgG1 was carried out with an anti-mouse Fc-HRP antibody (DAMPO, Jackson ImmunoResearch, Catalog 715-035-150). Absorbance was measured at 450 nm (reference at 620 nm) with Tecan instrument. The raw data (OD values) were plotted on GraphPad Prism 7.01. The EC50 values for each antibody, calculated with a non-linear regression (log(agonist) vs. response Variable slope (four parameters)), are shown in the table below. Antibody 1D11 from the previous panel was included for comparison.

The target of test [5] is T1, human galectin-10-His (recombinant …). Kind of test: BLI tandem on galectin-10-His; competitor: saturating 1D11 mIgG1 (10 ug/mL). An outline of the steps:
as §1

Test [6] has the same target. Nature of the test: Biacore capture approach (summary table), mouse IgG1. The procedure: The binding capacity of the mouse IgG1 antibodies to galectin-10 was analyzed on Biacore T3000. For this purpose, a capture approach was set up. A CM5 Chip was coated with polyclonal anti-mouse Fc at 8000 RU, then a fixed concentration of the mouse IgG1 antibody panel (1.5 μg/mL), diluted in HBS-EP pH7.4, was captured to reach a binding signal around 150 RU. Finally, a serial dilution of galectin-10-His (serial dilution, 1 over 2 from 5 μg/mL) diluted in HBS-EP pH7.4 was injected. Raw data were analyzed via BIA evaluation software with a blank subtraction (4-3). The kd/KD and Rmax of each mAb to galectin-10-His was determined using the Fit Kinetics simultaneous ka/kd/Binding with mass transfer/Local Rmax on BIA evaluation software.
A general note: SPR reads the build-up and loss of mass on a sensor chip optically.

Test [7] addresses T3, TEV-cleaved wild-type recombinant human galectin-10 (soluble, in Fab complexes, or as recombinant galectin-10 … (human, UniProt Q05315 1-142)).
T3 sequence: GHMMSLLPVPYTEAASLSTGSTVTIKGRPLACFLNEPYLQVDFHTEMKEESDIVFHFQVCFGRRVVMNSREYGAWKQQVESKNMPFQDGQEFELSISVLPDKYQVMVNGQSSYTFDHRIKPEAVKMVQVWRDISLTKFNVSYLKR
Kind of test: cell-based or functional assay.

Test [8] deals with T1, human galectin-10-His (recombinant …). Nature of the test: ELISA binding (summary table), mouse IgG1.

B1: 1D11 mouse IgG1 (antibody, V domains shown)
VH: QVQLVESGGGLVQPGGSLRLSCAASGFTFDDYAMSWVRQAPGKGLEWVSGISWNGGSTYYAESMKGRFTISRDNAKNTLYLQMNSLKSEDTAVYYCAKDRNLGYRLGYPYDYWGQGTQVTVSS
VL: QSVLTQPPSVSGSPGETVTISCAGTSSDVGYGNYVSWYQQLPGMAPRLLIYEVNKRASGITDRFSGSKSGNTASLTISGLQSEDEGDYYCASYRSSNNAVFGGGTHLTVL
notes: VH on mouse IgG1 heavy chain constant domains (CH1-CH2-CH3), VL on mouse lambda light chain constant domain; also called 1D011; 1D11 mIgG1
Consider B1, for which the Bmax in test [1] came out at 1.5 OD. The 50% effective concentration (EC50) in test [1] and in test [8] was 0.1 nM in each case. Also, the “binding signal (nm)” value is 0.03 nm in test [2], 0.02 nm in test [3] and 0.06 nm in test [5]. In addition, in test [4], the binding result is given as “no binding”. Moreover, in test [6], the Kd turned out to be 1 nM. Further, the koff in test [6] stood at 0.00529 s⁻¹. Further, the “100% Solubilization of CLC (Conc uM)” value in test [7] stood at 7.86 µM.

Values taken from patent publication US20190367619A1 (ARGENX, published 2019).
